Data reported in patent US20080075684A1.

Columns and labels:
keratin of human hair [1] = experiment: quantitative hair binding test: human hair incubated with His-tagged comparison protein, detection with anti-polyhistidine peroxidase conjugate and TMB, absorption at 405 nm
keratin of human hair [2] = experiment: quantitative hair binding test: human hair incubated with renatured His-tagged KBD-B, detection with anti-polyhistidine peroxidase conjugate and TMB, absorption at 405 nm
keratin of human hair [3] = experiment: quantitative hair binding test with the denatured (not renatured) protein: human hair, detection with anti-polyhistidine peroxidase conjugate and TMB, absorption at 405 nm

A405 nm (keratin of human hair [1]) | A405 nm (keratin of human hair [2]) | A405 nm (keratin of human hair [3]) | Molecule
0.088 | – | – | YaaD from B. subtilis (comparison protein, with His tag) (from UniProt P37527)
– | 1.59 | 0.254 | KBD-B (keratin-binding domain B of human desmoplakin), expressed by the vector pQE30-KBD-B in E. coli (protein) MRGSHHHHHHGSACELEPHTGLLLLSVQKRSMSFQGIRQPVTVTELVDSGILRPSTVNELESGQISYDEVGERIKDFLQGSSCIAGIYNETTKQKLGIYEAMKIGLVRPGTALELLEAQAATGFIVDPVSNLRLPVEEAYKRGLVGIEFKEKLLSAERAVTGYNDPETGNIISLFQAMNKELIEKGHGIRLLEAQIATGGIIDPKESHRLPVDIAYKRGYFNEELSEILSDPSDDTKGFFDPNTEENLTYLQLKERCIKDEETGLCLLPLKEKKKQVQTSQKNTLRKRRVVIVDPETNKEMSVQEGVDLQPSLIS
